Experimental data reported in publication PMC9911869.

Target: recombinant pullulanase from Manihot esculenta Crantz (rMePUL), mature form without the transit peptide (Manihot esculenta Crantz (cassava))
Test: SEC; purified rMePUL on an MAbPac SEC-1 column (4 x 300 mm), 25 mM phosphate buffer pH 6.8 with 300 mM NaCl, 0.2 mL/min, 30°C, A280; calibrated with Bio-Rad gel filtration standards; monomer and dimer peaks

stoichiometry N: 2
Substance: recombinant pullulanase from Manihot esculenta Crantz (rMePUL), mature form without the transit peptide (enzyme)
